Measurements: patent US20260167699A1 (Chugai, published 2026)

T1: FcγRIIb extracellular domain, C-terminal His tag (human, UniProt P31994 43-217)
T1 construct: extracellular domain; also called 2b
T1 sequence: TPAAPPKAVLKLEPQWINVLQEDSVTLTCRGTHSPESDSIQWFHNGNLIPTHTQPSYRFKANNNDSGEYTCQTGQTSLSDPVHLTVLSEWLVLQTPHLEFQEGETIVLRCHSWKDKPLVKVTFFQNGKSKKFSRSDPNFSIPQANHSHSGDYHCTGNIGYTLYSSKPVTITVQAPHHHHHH

T2: FcγRIIa(H) extracellular domain, C-terminal His tag (human, UniProt P12318 34-217)
T2 construct: extracellular domain; also called 2aH
T2 sequence: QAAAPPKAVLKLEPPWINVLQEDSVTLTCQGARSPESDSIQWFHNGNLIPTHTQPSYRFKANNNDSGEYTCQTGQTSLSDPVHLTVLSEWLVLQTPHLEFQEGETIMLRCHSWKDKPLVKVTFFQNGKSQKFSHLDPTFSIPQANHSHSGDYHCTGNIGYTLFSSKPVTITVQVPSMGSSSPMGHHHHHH

T3: FcγRIIa(R) extracellular domain, C-terminal His tag (human, UniProt P12318 34-217)
T3 construct: extracellular domain; also called 2aR
T3 sequence: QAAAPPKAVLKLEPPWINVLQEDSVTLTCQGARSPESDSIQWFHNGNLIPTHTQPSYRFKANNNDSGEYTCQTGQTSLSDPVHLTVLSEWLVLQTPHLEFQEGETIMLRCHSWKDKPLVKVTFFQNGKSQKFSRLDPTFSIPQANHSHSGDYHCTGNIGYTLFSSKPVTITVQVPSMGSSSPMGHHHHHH

B1: GpH7-A5/GpH7-B3 variant Q295_05P/GpL16-k0 (antibody, human IgG1, kappa)
heavy 1: not shown
heavy 2: not shown
light: DIVMTQSPLSLPVTPGEPASISCQASESLVHSNRNTYLHWYLQKPGQSPQLLIYKVSNRFSGVPDRFSGSGSGTDFTLKISRVEAEDVGVYYCSQNTHVPPTFGQGTKVEIERTVAAPSVFIFPPSDEQLKSGTASVVCLLNNFYPREAKVQWKVDNALQSGNSQESVTEQDSKDSTYSLSSTLTLSKADYEKHKVYACEVTHQGLSSPVTKSFNRGEC
notes: heterodimerized IgG1, one H chain mutated; also called He Ab; copies: 1 + 1 + 2
B2: GpH7-A5/GpH7-B3 variant Q295_11K/GpL16-k0 (antibody, human IgG1, kappa)
heavy 1: not shown
heavy 2: not shown
light: DIVMTQSPLSLPVTPGEPASISCQASESLVHSNRNTYLHWYLQKPGQSPQLLIYKVSNRFSGVPDRFSGSGSGTDFTLKISRVEAEDVGVYYCSQNTHVPPTFGQGTKVEIERTVAAPSVFIFPPSDEQLKSGTASVVCLLNNFYPREAKVQWKVDNALQSGNSQESVTEQDSKDSTYSLSSTLTLSKADYEKHKVYACEVTHQGLSSPVTKSFNRGEC
notes: as for B1
B3: GpH7-A5/GpH7-B3 variant Q295_16H/GpL16-k0 (antibody, human IgG1, kappa)
heavy 1: not shown
heavy 2: not shown
light: DIVMTQSPLSLPVTPGEPASISCQASESLVHSNRNTYLHWYLQKPGQSPQLLIYKVSNRFSGVPDRFSGSGSGTDFTLKISRVEAEDVGVYYCSQNTHVPPTFGQGTKVEIERTVAAPSVFIFPPSDEQLKSGTASVVCLLNNFYPREAKVQWKVDNALQSGNSQESVTEQDSKDSTYSLSSTLTLSKADYEKHKVYACEVTHQGLSSPVTKSFNRGEC
notes: as for B1
B4: GpH7-A5/GpH7-B3 variant S298_01G/GpL16-k0 (antibody, human IgG1, kappa)
heavy 1: not shown
heavy 2: not shown
light: DIVMTQSPLSLPVTPGEPASISCQASESLVHSNRNTYLHWYLQKPGQSPQLLIYKVSNRFSGVPDRFSGSGSGTDFTLKISRVEAEDVGVYYCSQNTHVPPTFGQGTKVEIERTVAAPSVFIFPPSDEQLKSGTASVVCLLNNFYPREAKVQWKVDNALQSGNSQESVTEQDSKDSTYSLSSTLTLSKADYEKHKVYACEVTHQGLSSPVTKSFNRGEC
notes: as for B1
B5: GpH7-A5/GpH7-B3 variant Q295_08L/GpL16-k0 (antibody, human IgG1, kappa)
heavy 1: not shown
heavy 2: not shown
light: DIVMTQSPLSLPVTPGEPASISCQASESLVHSNRNTYLHWYLQKPGQSPQLLIYKVSNRFSGVPDRFSGSGSGTDFTLKISRVEAEDVGVYYCSQNTHVPPTFGQGTKVEIERTVAAPSVFIFPPSDEQLKSGTASVVCLLNNFYPREAKVQWKVDNALQSGNSQESVTEQDSKDSTYSLSSTLTLSKADYEKHKVYACEVTHQGLSSPVTKSFNRGEC
notes: as for B1
B6: GpH7-A5/GpH7-B3 variant Q295_18N/GpL16-k0 (antibody, human IgG1, kappa)
heavy 1: not shown
heavy 2: not shown
light: DIVMTQSPLSLPVTPGEPASISCQASESLVHSNRNTYLHWYLQKPGQSPQLLIYKVSNRFSGVPDRFSGSGSGTDFTLKISRVEAEDVGVYYCSQNTHVPPTFGQGTKVEIERTVAAPSVFIFPPSDEQLKSGTASVVCLLNNFYPREAKVQWKVDNALQSGNSQESVTEQDSKDSTYSLSSTLTLSKADYEKHKVYACEVTHQGLSSPVTKSFNRGEC
notes: as for B1
B7: GpH7-A5/GpH7-B3 variant Q295_10E/GpL16-k0 (antibody, human IgG1, kappa)
heavy 1: not shown
heavy 2: not shown
light: DIVMTQSPLSLPVTPGEPASISCQASESLVHSNRNTYLHWYLQKPGQSPQLLIYKVSNRFSGVPDRFSGSGSGTDFTLKISRVEAEDVGVYYCSQNTHVPPTFGQGTKVEIERTVAAPSVFIFPPSDEQLKSGTASVVCLLNNFYPREAKVQWKVDNALQSGNSQESVTEQDSKDSTYSLSSTLTLSKADYEKHKVYACEVTHQGLSSPVTKSFNRGEC
notes: as for B1
B8: GpH7-A5/GpH7-B3 variant Q295_14T/GpL16-k0 (antibody, human IgG1, kappa)
heavy 1: not shown
heavy 2: not shown
light: DIVMTQSPLSLPVTPGEPASISCQASESLVHSNRNTYLHWYLQKPGQSPQLLIYKVSNRFSGVPDRFSGSGSGTDFTLKISRVEAEDVGVYYCSQNTHVPPTFGQGTKVEIERTVAAPSVFIFPPSDEQLKSGTASVVCLLNNFYPREAKVQWKVDNALQSGNSQESVTEQDSKDSTYSLSSTLTLSKADYEKHKVYACEVTHQGLSSPVTKSFNRGEC
notes: as for B1
B9: GpH7-A5/GpH7-B3 variant Q295_13S/GpL16-k0 (antibody, human IgG1, kappa)
heavy 1: not shown
heavy 2: not shown
light: DIVMTQSPLSLPVTPGEPASISCQASESLVHSNRNTYLHWYLQKPGQSPQLLIYKVSNRFSGVPDRFSGSGSGTDFTLKISRVEAEDVGVYYCSQNTHVPPTFGQGTKVEIERTVAAPSVFIFPPSDEQLKSGTASVVCLLNNFYPREAKVQWKVDNALQSGNSQESVTEQDSKDSTYSLSSTLTLSKADYEKHKVYACEVTHQGLSSPVTKSFNRGEC
notes: as for B1
B10: GpH7-A5/GpH7-B3 variant Q295_07I/GpL16-k0 (antibody, human IgG1, kappa)
heavy 1: not shown
heavy 2: not shown
light: DIVMTQSPLSLPVTPGEPASISCQASESLVHSNRNTYLHWYLQKPGQSPQLLIYKVSNRFSGVPDRFSGSGSGTDFTLKISRVEAEDVGVYYCSQNTHVPPTFGQGTKVEIERTVAAPSVFIFPPSDEQLKSGTASVVCLLNNFYPREAKVQWKVDNALQSGNSQESVTEQDSKDSTYSLSSTLTLSKADYEKHKVYACEVTHQGLSSPVTKSFNRGEC
notes: as for B1
B11: GpH7-A5/GpH7-B3 variant Q295_09D/GpL16-k0 (antibody, human IgG1, kappa)
heavy 1: not shown
heavy 2: not shown
light: DIVMTQSPLSLPVTPGEPASISCQASESLVHSNRNTYLHWYLQKPGQSPQLLIYKVSNRFSGVPDRFSGSGSGTDFTLKISRVEAEDVGVYYCSQNTHVPPTFGQGTKVEIERTVAAPSVFIFPPSDEQLKSGTASVVCLLNNFYPREAKVQWKVDNALQSGNSQESVTEQDSKDSTYSLSSTLTLSKADYEKHKVYACEVTHQGLSSPVTKSFNRGEC
notes: as for B1
B12: GpH7-A5/GpH7-B3 variant Q295_15Y/GpL16-k0 (antibody, human IgG1, kappa)
heavy 1: not shown
heavy 2: not shown
light: DIVMTQSPLSLPVTPGEPASISCQASESLVHSNRNTYLHWYLQKPGQSPQLLIYKVSNRFSGVPDRFSGSGSGTDFTLKISRVEAEDVGVYYCSQNTHVPPTFGQGTKVEIERTVAAPSVFIFPPSDEQLKSGTASVVCLLNNFYPREAKVQWKVDNALQSGNSQESVTEQDSKDSTYSLSSTLTLSKADYEKHKVYACEVTHQGLSSPVTKSFNRGEC
notes: as for B1
B13: GpH7-A5/GpH7-B3 variant Q295_06M/GpL16-k0 (antibody, human IgG1, kappa)
heavy 1: not shown
heavy 2: not shown
light: DIVMTQSPLSLPVTPGEPASISCQASESLVHSNRNTYLHWYLQKPGQSPQLLIYKVSNRFSGVPDRFSGSGSGTDFTLKISRVEAEDVGVYYCSQNTHVPPTFGQGTKVEIERTVAAPSVFIFPPSDEQLKSGTASVVCLLNNFYPREAKVQWKVDNALQSGNSQESVTEQDSKDSTYSLSSTLTLSKADYEKHKVYACEVTHQGLSSPVTKSFNRGEC
notes: as for B1

What was measured:
Assay in all cases: SPR; He Ab vs HeCon Ab (GpH7-A5/GpH7-B3/GpL16-k0)=100;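 note: surface plasmon resonance at 25 °C with the test antibody captured on a sensor chip via antigenic peptide, protein L or protein A/G and FcγR flowed over as analyte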
[1] = biological target: T4, FcγRIIIa extracellular domain, C-terminal His tag (human, UniProt P08637 17-208)
T4 construct: extracellular domain; also called 3a
Experimental: (§1) The antibody of interest was analyzed for its interaction with FcγR using a BiaCore™ T100, BiaCore™ A100, or BiaCore™ 4000 surface plasmon resonance system (GE Healthcare Japan Corp.). The running buffer used was HBS-EP+ (GE Healthcare Japan Corp.). The assay temperature was set to 25° C. The sensor chips used were: a chip prepared by immobilizing antigenic peptides onto Series S Sensor Chip CM5 (GE Healthcare Japan Corp.) by the amine coupling method; a chip prepared by immobilizing antigenic peptides biotinylated in advance onto Series S Sensor Chip SA (certified) (GE Healthcare Japan Corp.) through their interaction; a chip prepared by immobilizing protein L (ACTIGEN, BioVision, Inc.) onto Series S Sensor Chip CM5 (GE Healthcare Japan Corp.); and a chip prepared by immobilizing protein A/G (Thermo Fisher Scientific K.K.) onto Series S Sensor Chip CM5 (GE Healthcare Japan Corp.). The antibody of interest was captured onto any of these chips and allowed to interact with FcγR diluted with a running buffer. The antibody captured on the chip was washed off through the reaction of 10 mM glycine-HCl (pH 1.5) to regenerate the chip, which was repetitively used.

[2] = biological target: T5, FcγRIa extracellular domain, C-terminal His tag (human, UniProt P12314 16-292)
T5 construct: extracellular domain; also called 1a
Experimental: as §1

[3] = biological target: T1, FcγRIIb extracellular domain, …
Experimental: as §1

[4] = biological target: T2, FcγRIIa(H) extracellular domain, …
Experimental: as §1

[5] = biological target: T3, FcγRIIa(R) extracellular domain, …
Experimental: as §1

T4 sequence (P08637 other isoform, or with tags, fused parts or gaps): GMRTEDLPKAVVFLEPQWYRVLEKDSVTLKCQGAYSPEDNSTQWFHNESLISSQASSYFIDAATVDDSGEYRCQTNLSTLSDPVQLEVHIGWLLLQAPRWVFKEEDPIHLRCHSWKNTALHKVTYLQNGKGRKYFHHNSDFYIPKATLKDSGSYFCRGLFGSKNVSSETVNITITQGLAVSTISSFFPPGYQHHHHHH
T5 sequence (P12314 other isoform, or with tags, fused parts or gaps): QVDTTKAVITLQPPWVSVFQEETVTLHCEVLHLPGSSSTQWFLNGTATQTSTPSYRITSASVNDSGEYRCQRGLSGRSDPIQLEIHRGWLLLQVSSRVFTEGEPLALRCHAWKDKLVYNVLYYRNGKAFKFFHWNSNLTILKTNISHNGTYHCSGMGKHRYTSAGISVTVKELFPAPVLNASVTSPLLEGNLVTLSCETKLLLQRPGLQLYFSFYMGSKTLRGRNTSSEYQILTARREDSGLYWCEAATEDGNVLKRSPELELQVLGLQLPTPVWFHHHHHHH

Binder | He/Con 3a [1] [%] | He/Con 1a [2] [%] | He/Con 2b [3] [%] | He/Con 2aH [4] [%] | He/Con 2aR [5] [%]
B1 | 74.4 | 102 | 75.7 | 118 | 86.6
B2 | 81.8 | 99.7 | 79 | 102 | 88.1
B3 | 80.2 | 101 | 70.3 | 90.1 | 80.5
B4 | 74.9 | 100 | 81.2 | 71.4 | 94.5
B5 | 120 | 103 | 134 | 128 | 118
B6 | 85.7 | 101 | 72.8 | 87.8 | 81.7
B7 | 105 | 101 | 106 | 112 | 101
B8 | 120 | 101 | 74.9 | 86.2 | 79.2
B9 | 90.4 | 100 | 63.8 | 79.5 | 73
B10 | 101 | 101 | 94.5 | 117 | 97.3
B11 | 85.6 | 98.5 | 68.1 | 62.6 | 68.7
B12 | 81.5 | 100 | 73.3 | 89.3 | 82
B13 | 100 | 102 | 101 | 111 | 101
